Measurements reported in ChEMBL document CHEMBL1811779, “Adenosine deaminase-like protein 1 (ADAL1): characterization and substrate specificity in the hydrolysis of N(6)- or O(6)-substituted purine or 2-aminopurine nucleoside monophosphates” (J Med Chem, 2011).
The source made the active and inactive calls. The calls are words filed in the database; no cut-off is given here.

Experiments:
[1] = biological target: T1, N6-Methyl-AMP deaminase (Homo sapiens) (UniProt Q6DHV7); assay: (§1) Activity of recombinant human ADAL1 expressed in Escherichia coli by UV-spectrophotometry
T1 sequence (whole entry): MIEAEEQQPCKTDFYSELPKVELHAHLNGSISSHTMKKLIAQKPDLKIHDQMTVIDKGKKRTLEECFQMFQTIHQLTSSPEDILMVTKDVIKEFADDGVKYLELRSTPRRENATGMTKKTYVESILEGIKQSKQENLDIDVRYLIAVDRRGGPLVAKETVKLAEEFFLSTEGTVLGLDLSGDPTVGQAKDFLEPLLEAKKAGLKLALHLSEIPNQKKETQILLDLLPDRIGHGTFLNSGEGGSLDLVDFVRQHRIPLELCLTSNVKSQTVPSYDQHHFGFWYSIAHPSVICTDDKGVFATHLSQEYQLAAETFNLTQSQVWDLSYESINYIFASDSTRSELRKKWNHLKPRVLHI

[2] = substrate: CC(C)Oc1nc(N)nc2c1ncn2[C@@H]1O[C@H](COP(=O)(O)O)[C@@H](O)[C@@]1(C)F; assay: (§2) Kcat/Km ratio of recombinant human ADAL1 expressed in Escherichia coli
[3] = substrate: CCOc1nc(N)nc2c1ncn2[C@@H]1O[C@H](COP(=O)(O)O)[C@@H](O)[C@@]1(C)F; assay: as §2
[4] = substrate: CNc1ncnc2c1ncn2[C@@H]1O[C@H](COP(=O)(O)O)[C@@H](O)[C@H]1O; assay: as §2
[5] = substrate: COc1nc(N)nc2c1ncn2[C@@H]1O[C@H](COP(=O)(O)O)[C@@H](O)[C@@]1(C)F; assay: as §2
[6] = substrate: COc1nc(N)nc2c1ncn2[C@@H]1O[C@H](COP(=O)(O)O)[C@@H](O)[C@@]1(C)O; assay: as §2
[7] = substrate: COc1nc(N)nc2c1ncn2[C@@H]1O[C@H](COP(=O)(O)O)[C@@H](O)[C@H]1O; assay: as §2
[8] = substrate: COc1nc(N)nc2c1ncn2[C@H]1C[C@H](O)[C@@H](COP(=O)(O)O)O1; assay: as §2
[9] = substrate: C[C@@]1(F)[C@H](O)[C@@H](COP(=O)(O)O)O[C@H]1n1cnc2c(N3CCC3)nc(N)nc21; assay: as §2
[10] = substrate: Nc1nc(Cl)c2ncn([C@@H]3O[C@H](COP(=O)(O)O)[C@@H](O)[C@H]3O)c2n1; assay: as §2
[11] = substrate: Nc1nc(NC2CC2)c2ncn([C@H]3C=C[C@@H](COP(=O)(O)O)C3)c2n1; assay: as §2
[12] = substrate: Nc1ncnc2c1ncn2[C@@H]1O[C@H](COP(=O)(O)O)[C@@H](O)[C@H]1O; assay: as §2
[13] = substrate: O=P(O)(O)OC[C@H]1O[C@@H](n2cnc3c(NC4CCCC4)ncnc32)[C@H](O)[C@@H]1O; assay: as §2
[14] = substrate: CC(C)Oc1nc(N)nc2c1ncn2[C@@H]1O[C@H](COP(=O)(O)O)[C@@H](O)[C@@]1(C)F; assay: as §1
[15] = substrate: CCOc1nc(N)nc2c1ncn2[C@@H]1O[C@H](COP(=O)(O)O)[C@@H](O)[C@@]1(C)F; assay: as §1
[16] = substrate: CNc1ncnc2c1ncn2[C@@H]1O[C@H](COP(=O)(O)O)[C@@H](O)[C@H]1O; assay: as §1
[17] = substrate: COc1nc(N)nc2c1ncn2[C@@H]1O[C@H](COP(=O)(O)O)[C@@H](O)[C@@]1(C)F; assay: as §1
[18] = substrate: COc1nc(N)nc2c1ncn2[C@@H]1O[C@H](COP(=O)(O)O)[C@@H](O)[C@@]1(C)O; assay: as §1
[19] = substrate: COc1nc(N)nc2c1ncn2[C@@H]1O[C@H](COP(=O)(O)O)[C@@H](O)[C@H]1O; assay: as §1
[20] = substrate: COc1nc(N)nc2c1ncn2[C@H]1C[C@H](O)[C@@H](COP(=O)(O)O)O1; assay: as §1
[21] = substrate: C[C@@]1(F)[C@H](O)[C@@H](COP(=O)(O)O)O[C@H]1n1cnc2c(N3CCC3)nc(N)nc21; assay: as §1
[22] = substrate: Nc1nc(Cl)c2ncn([C@@H]3O[C@H](COP(=O)(O)O)[C@@H](O)[C@H]3O)c2n1; assay: as §1
[23] = substrate: Nc1nc(NC2CC2)c2ncn([C@H]3C=C[C@@H](COP(=O)(O)O)C3)c2n1; assay: as §1
[24] = substrate: Nc1ncnc2c1ncn2[C@@H]1O[C@H](COP(=O)(O)O)[C@@H](O)[C@H]1O; assay: as §1
[25] = substrate: O=P(O)(O)OC[C@H]1O[C@@H](n2cnc3c(NC4CCCC4)ncnc32)[C@H](O)[C@@H]1O; assay: as §1

COc1nc(N)nc2c1ncn2[C@@H]1O[C@H](CO)[C@@H](O)[C@H]1O
Activity [1]: inactive

Nc1nc(=O)[nH]c2c1ncn2[C@@H]1O[C@H](CO)[C@@H](O)[C@H]1O
Activity [1]: inactive

CCOc1nc(N)nc2c1ncn2[C@@H]1O[C@@H]2CO[P@](=O)(OC(C)C)O[C@H]2[C@@]1(C)F
Activity [1]: inactive

Nc1nc(=S)c2ncn([C@@H]3O[C@H](COP(=O)(O)O)[C@@H](O)[C@H]3O)c2[nH]1
Activity [1]: inactive

COc1nc(N)nc2c1ncn2[C@@H]1O[C@H](COP(=O)(O)N[C@@H](C)C(=O)O)[C@@H](O)[C@@]1(C)F
Activity [1]: inactive

Nc1ncnc2c1ncn2[C@@H]1O[C@H](CO)[C@@H](O)[C@H]1O
Activity [1]: inactive

O=C(O)CC(Nc1ncnc2c1ncn2[C@@H]1O[C@H](COP(=O)(O)O)[C@@H](O)[C@H]1O)C(=O)O (stereo not given in full)
Activity [1]: inactive

CCOc1nc(N)nc2c1ncn2[C@@H]1O[C@@H]2COP(=O)(O)O[C@H]2[C@@]1(C)F
Activity [1]: inactive

COc1nc(N)nc2c1ncn2[C@@H]1O[C@H](COP(=O)(N[C@@H](C)C(=O)OC(C)C)Oc2ccccc2)[C@@H](O)[C@@]1(C)F (stereo not given in full)
Activity [1]: inactive

C[C@H](Cn1cnc2c(N)ncnc21)OCP(=O)(O)O
Activity [1]: inactive

CNc1ncnc2c1ncn2[C@@H]1O[C@H](CO)[C@@H](O)[C@H]1O
Activity [1]: inactive

Nc1ncnc2c1ncn2[C@@H]1O[C@H](COP(N)(=O)O)[C@@H](O)[C@H]1O
Activity [1]: inactive

CN1N=C(N)c2cn([C@@H]3O[C@H](COP(=O)(O)O)[C@@H](O)[C@H]3O)c3ncnc1c23
Activity [1]: inactive

Nc1nc(NC2CC2)c2ncn([C@H]3C=C[C@@H](CO)C3)c2n1
Activity [1]: inactive

CSc1nc(N)nc2c1ncn2[C@@H]1O[C@H](COP(=O)(O)O)[C@@H](O)[C@H]1O
Activity [1]: inactive

O=P(O)(O)OC[C@H]1O[C@@H](n2cnc3c2ncn2ccnc32)[C@H](O)[C@@H]1O
Activity [1]: inactive

Nc1ncnc2c1ncn2CCOCP(=O)(O)O
Activity [1]: inactive

Nc1ccn([C@H]2C[C@H](O)[C@@H](COP(=O)(O)O)O2)c(=O)n1
Activity [1]: inactive

CCOc1nc(N)nc2c1ncn2[C@@H]1O[C@H](CO)[C@@H](O)[C@@]1(C)F
Activity [1]: inactive

COc1nc(N)nc2c1ncn2[C@@H]1O[C@H](COP(=O)(O)OP(=O)(O)O)[C@@H](O)[C@@]1(C)F
Activity [1]: inactive

COc1nc(N)nc2c1ncn2[C@@H]1O[C@H](CO)[C@@H](O)[C@@]1(C)F
Activity [1]: inactive

C[C@@]1(F)[C@H](O)[C@@H](COP(=O)(O)O)O[C@H]1n1ccc(N)nc1=O
Activity [1]: inactive

Nc1nc(N)c2ncn([C@@H]3O[C@H](CO)[C@@H](O)[C@H]3O)c2n1
Activity [1]: inactive

CCOc1nc(N)nc2c1ncn2[C@@H]1O[C@H](COP(=O)(O)OP(=O)(O)OP(=O)(O)O)[C@@H](O)[C@@]1(C)F
Activity [1]: inactive

B1: N6-Methyl-AMP deaminase (Homo sapiens), Q6DHV7 (protein)
chain: T1 sequence (whole entry)
kcat/Km [2]: 280000 M⁻¹ s⁻¹ | kcat/Km [3]: 320000 M⁻¹ s⁻¹ | kcat/Km [4]: 130000 M⁻¹ s⁻¹ | kcat/Km [5]: 650000 M⁻¹ s⁻¹ | kcat/Km [6]: 220000 M⁻¹ s⁻¹ | kcat/Km [7]: 450000 M⁻¹ s⁻¹ | kcat/Km [8]: 490000 M⁻¹ s⁻¹ | kcat/Km [9]: 180000 M⁻¹ s⁻¹ | kcat/Km [10]: 223000 M⁻¹ s⁻¹ | kcat/Km [11]: 220000 M⁻¹ s⁻¹ | kcat/Km [12]: 1700 M⁻¹ s⁻¹ | kcat/Km [13]: 300000 M⁻¹ s⁻¹ | Km [14]: 25.9 µM | kcat [14]: 7.2 s⁻¹ | Km [15]: 25.1 µM | kcat [15]: 8.14 s⁻¹ | Km [16]: 12.5 µM | kcat [16]: 1.58 s⁻¹ | Km [17]: 8.96 µM | kcat [17]: 5.85 s⁻¹ | Km [18]: 10.7 µM | kcat [18]: 2.36 s⁻¹ | Km [19]: 5.2 µM | kcat [19]: 2.33 s⁻¹ | Km [20]: 6 µM | kcat [20]: 2.92 s⁻¹ | Km [21]: 8.63 µM | kcat [21]: 1.55 s⁻¹ | Km [22]: 16.3 µM | kcat [22]: 3.64 s⁻¹ | Km [23]: 7.37 µM | kcat [23]: 1.63 s⁻¹ | Km [24]: 32.8 µM | kcat [24]: 0.055 s⁻¹ | Km [25]: 14.3 µM | kcat [25]: 4.24 s⁻¹
